The values below come from patent US20220275089A1 (AKESO PHARMACEUTICALS, published 2022).

Assay [1] has as its target T1, C1q (UniProt P02745 23-245; P02746 28-253; P02747 29-245).
T1 construct: also called serum complement C1q; complement C1q
The experiment in a line: BLI (Fortebio Octet), antibody on FAB2G sensor, C1q 1.25-20 nM, 1:1 fit. The procedure: (§1) 50 μg/mL antibody was immobilized on the FAB2G sensor at an immobilization height of about […]. […] The antigen and antibody were dissociated in the buffer for 60 s. The sensor was refreshed 4 times in 10 mM glycine pH 1.7, each for 5 s. The shaking speed of the sample plate was 1000 rpm, the temperature was 30° C. and the frequency was 0.6 Hz. The data were analyzed by 1:1 model fitting to obtain affinity constants. The data acquisition software was Fortebio Data Acquisition 7.0, and the data analysis software was Fortebio Data Analysis 7.0.
A general note: In BLI a coated tip is dipped into the sample, and binding shifts an interference pattern.

Assay [2] has as its target T2, FcγRIIb (UniProt P31994 43-217, limits assumed).
T2 construct: also called CD32b
T2 sequence (looked up): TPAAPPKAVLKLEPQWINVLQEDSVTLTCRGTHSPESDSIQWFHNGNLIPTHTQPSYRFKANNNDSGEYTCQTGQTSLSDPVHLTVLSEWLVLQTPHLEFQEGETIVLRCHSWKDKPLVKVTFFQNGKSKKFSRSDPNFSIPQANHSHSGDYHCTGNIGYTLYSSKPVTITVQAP
The experiment in a line: BLI (Fortebio Octet), FcγRIIb on NTA sensor, antibody 12.5-200 nM, 1:1 fit. The procedure: (§2) 5 μg/mL FcγRIIb was immobilized on the NTA sensor at an immobilization height of about 1.0 nm. […] The antibody was dissociated in the buffer for 60 s. The sensor was refreshed in 10 mM glycine pH 1.7 and 10 nM nickel sulfate. The temperature was 30° C. and the frequency was 0.6 Hz. The data were analyzed by 1:1 model fitting to obtain affinity constants.

In assay [3] the target is T3, FcγRI (UniProt P12314 16-288, limits assumed).
T3 construct: construct not described; also called CD64; FcγR1
T3 sequence (P12314 16-288 limits assumed): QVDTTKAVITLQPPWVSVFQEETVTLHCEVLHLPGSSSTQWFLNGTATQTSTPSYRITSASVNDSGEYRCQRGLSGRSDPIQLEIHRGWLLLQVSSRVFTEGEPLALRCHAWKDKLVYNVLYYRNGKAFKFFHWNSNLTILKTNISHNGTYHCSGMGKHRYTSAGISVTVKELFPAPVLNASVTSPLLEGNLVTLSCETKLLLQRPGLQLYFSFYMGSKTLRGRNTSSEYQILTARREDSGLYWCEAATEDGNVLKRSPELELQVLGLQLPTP
The experiment in a line: BLI (Fortebio Octet), FcγRI on HIS1K sensor, antibody 3.12-50 nM, 1:1 fit. The procedure:
(§3) A 1 μg/mL FcγRI solution (from Sinobio) was added to the HIS1K sensor to immobilize the FcγRI on the sensor surface for 50 s. […] The sensor with immobilized antigen was equilibrated in the buffer for 60 s, and then the binding of the immobilized FcγRI on the sensor to the antibodies was determined for 120 s; the dissociation of FcγRI from the antibodies was determined in 120 s. The temperature was 30° C. and the frequency was 0.3 Hz. The data were fitted and analyzed with a 1:1 model to obtain the affinity constants to FcγRI for the antibodies.

A further assay deals with T4, FcγRIIIa_F158 (UniProt P08637 17-208).
T4 construct: F158 polymorphic form
T4 sequence (P08637 17-208 limits assumed): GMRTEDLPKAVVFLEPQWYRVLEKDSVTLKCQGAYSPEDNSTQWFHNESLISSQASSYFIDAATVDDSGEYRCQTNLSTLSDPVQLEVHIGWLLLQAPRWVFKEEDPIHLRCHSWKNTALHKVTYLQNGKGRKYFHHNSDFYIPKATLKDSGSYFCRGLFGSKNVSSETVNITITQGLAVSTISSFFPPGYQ
The assay is described as follows: BLI (Fortebio Octet), FcγRIIIa_F158 immobilized on HIS1K sensor, antibody in solution at 31.25-500 nM. The procedure:
5 μg/mL FcγRIIIa_F158 was immobilized on the HIS1K sensor for 120 s. […] The antibody was dissociated in the buffer for 60 s. The sensor was refreshed 4 times in 10 mM glycine pH 1.5, each for 5 s. The temperature was 30° C. and the frequency was 0.3 Hz. The data were analyzed by 1:1 model fitting to obtain affinity constants.

The next assay concerns the target T5, FcγRIIIa_V158 (UniProt P08637 17-208).
T5 construct: V158 polymorphic form (mature numbering)
The experiment in a line: BLI (Fortebio Octet), FcγRIIIa_V158 immobilized on HIS1K sensor, antibody in solution at 31.25-500 nM. The procedure:
5 μg/mL FcγRIIIa_V158 was immobilized on the HIS1K sensor for 120 s. […] The antibody was dissociated in the buffer for 60 s. The sensor was refreshed 4 times in 10 mM glycine pH 1.5, each for 5 s. The temperature was 30° C. and the frequency was 0.3 Hz. The data were analyzed by 1:1 model fitting to obtain affinity constants.

The next assay has as its target T6, FcγRIIa_H131 (UniProt P12318 34-218).
T6 construct: H131 polymorphic form
T6 sequence (looked up): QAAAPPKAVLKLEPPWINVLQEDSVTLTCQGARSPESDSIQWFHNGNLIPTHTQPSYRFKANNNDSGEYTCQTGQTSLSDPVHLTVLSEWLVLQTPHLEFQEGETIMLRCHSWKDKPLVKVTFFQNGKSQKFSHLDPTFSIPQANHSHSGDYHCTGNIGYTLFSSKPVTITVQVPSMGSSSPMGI
The assay is described as follows: BLI (Fortebio Octet), FcγRIIa_H131 immobilized on NTA sensor, antibody in solution at 12.5-200 nM. The procedure: 5 μg/mL FcγRIIa_H131 was immobilized on the NTA sensor at an immobilization height of about 1.0 nm. […] The antibody was dissociated in the buffer for 60 s. The sensor was refreshed in 10 mM glycine pH 1.7 and […] nickel sulfate. The temperature was 30° C. and the frequency was 0.6 Hz. The data were analyzed by 1:1 model fitting to obtain affinity constants.

Assay [4] concerns the target T2, FcγRIIb. The experiment in a line: BLI (Fortebio Octet), FcγRIIb immobilized on NTA sensor, antibody in solution at 12.5-200 nM. The procedure: as §2
Assay [5] deals with T3, FcγRI. The assay is described as follows: BLI (Fortebio Octet), FcγRI immobilized on HIS1K sensor, antibody in solution at 3.12-50 nM. The procedure:
as §3

Assay [6] addresses T1, C1q. The experiment in a line: BLI (Fortebio Octet), antibody immobilized on FAB2G sensor, C1q in solution at 1.25-20 nM. The procedure: as §1

By Kd is commonly meant the constant that tells how readily two partners part at equilibrium. Higher therefore signals a looser complex. As usually defined, the koff is the rate constant with which the complex falls apart. Higher therefore signals a short-lived complex. In general, kon refers to the second-order rate constant of association. Low values mean slower complex formation, high ones faster complex formation.

T1 sequence (P02745 23-245 limits assumed, chain 1 of 3): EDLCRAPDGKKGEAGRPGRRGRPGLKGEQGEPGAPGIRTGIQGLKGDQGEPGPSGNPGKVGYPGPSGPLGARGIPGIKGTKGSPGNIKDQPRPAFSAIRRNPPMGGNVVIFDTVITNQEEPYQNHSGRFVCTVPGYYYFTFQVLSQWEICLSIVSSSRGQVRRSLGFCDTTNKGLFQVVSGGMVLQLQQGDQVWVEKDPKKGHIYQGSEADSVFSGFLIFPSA
T1 sequence (P02746 28-253 limits assumed, chain 2 of 3): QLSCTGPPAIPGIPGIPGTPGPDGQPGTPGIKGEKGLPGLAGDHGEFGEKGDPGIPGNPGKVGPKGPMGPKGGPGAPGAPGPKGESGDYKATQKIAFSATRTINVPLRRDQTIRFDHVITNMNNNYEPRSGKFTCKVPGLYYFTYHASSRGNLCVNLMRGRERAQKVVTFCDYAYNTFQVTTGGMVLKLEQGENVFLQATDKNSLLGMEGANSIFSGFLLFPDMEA
T1 sequence (P02747 29-245 limits assumed, chain 3 of 3): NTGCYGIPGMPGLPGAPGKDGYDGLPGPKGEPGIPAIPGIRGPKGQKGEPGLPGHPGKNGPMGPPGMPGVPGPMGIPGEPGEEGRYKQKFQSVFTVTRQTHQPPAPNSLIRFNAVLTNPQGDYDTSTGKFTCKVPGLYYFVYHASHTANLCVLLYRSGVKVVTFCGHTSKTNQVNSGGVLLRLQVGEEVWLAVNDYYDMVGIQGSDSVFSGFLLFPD
T5 sequence (P08637 17-208 F176V limits assumed): as the sequence (P08637 17-208 limits assumed) above, with F160V counted along it

B1: 5C10H2L2-IgG1mt (antibody)
chain 1: not shown
chain 2: EIVLTQSPDTLSVTPKEKVTLTCRASQSIGTNIHWFQQKPGQSPKLLIKYASESISGVPSRFSGSGSGTDFTLTINSVEAEDAATYYCQQSNSWPYTFGQGTKLEIKRTVAAPSVFIFPPSDEQLKSGTASVVCLLNNFYPREAKVQWKVDNALQSGNSQESVTEQDSKDSTYSLSSTLTLSKADYEKHKVYACEVTHQGLSSPVTKSFNRGEC
As to B1, in the assay with C1q [1], the Kd turned out to be 4.43 nM, the koff was found to be 0.0105 s⁻¹ and the kon amounted to 2.38e+06 M⁻¹ s⁻¹.

B2: BiAb004(hG1WT) (bispecific antibody, human IgG1, kappa)
heavy: not shown
light: DIQMTQSPSSMSASVGDRVTFTCRASQDINTYLSWFQQKPGKSPKTLIYRANRLVSGVPSRFSGSGSGQDYTLTISSLQPEDMATYYCLQYDEFPLTFGAGTKLELKRTVAAPSVFIFPPSDEQLKSGTASVVCLLNNFYPREAKVQWKVDNALQSGNSQESVTEQDSKDSTYSLSSTLTLSKADYEKHKVYACEVTHQGLSSPVTKSFNRGEC
notes: IgG-scFv (Morrison format); also called BiAb004(M); BiAh004(M)
Regarding B2, the Kd with C1q [1] was 2.53 nM; in the assay with FcγRIIb [2], 56.1 nM; with FcγRI [3] it was 5.92 nM.

B3: BiAb004(hG1TM) (bispecific antibody, human IgG1, kappa)
heavy: not shown
light: B2 light
notes: IgG-scFv (Morrison format), anti-PD-1 IgG1 with an anti-CTLA4 scFv on the C terminus of each heavy chain
In the case of B3, the binding result with FcγRIIIa_F158 is reported as “no binding (tested: 500 nM)”; with FcγRIIIa_V158 it was “no binding (tested: 500 nM)”; in the assay with FcγRIIa_H131, “no binding (tested: 200 nM)”; with FcγRIIb [4] it was “no binding (tested: 200 nM)”; with FcγRI [5], “no binding (tested: 50 nM)”; in the assay with C1q [6] it was “no binding (tested: 20 nM)”.
